Results from article PMC4299599, “Quantification of cytosolic interactions identifies Ede1 oligomers as key organizers of endocytosis” (Molecular Systems Biology, 2014).

T1: Pan1 (S. cerevisiae, UniProt P32521 1-1480)
T1 construct: Pan1, S. cerevisiae; also called Pan1-1myeGFP; Pan1-3mCherry; source: chromosomally tagged at the endogenous locus, in the cytoplasm of living S. cerevisiae cells
T1 sequence (looked up): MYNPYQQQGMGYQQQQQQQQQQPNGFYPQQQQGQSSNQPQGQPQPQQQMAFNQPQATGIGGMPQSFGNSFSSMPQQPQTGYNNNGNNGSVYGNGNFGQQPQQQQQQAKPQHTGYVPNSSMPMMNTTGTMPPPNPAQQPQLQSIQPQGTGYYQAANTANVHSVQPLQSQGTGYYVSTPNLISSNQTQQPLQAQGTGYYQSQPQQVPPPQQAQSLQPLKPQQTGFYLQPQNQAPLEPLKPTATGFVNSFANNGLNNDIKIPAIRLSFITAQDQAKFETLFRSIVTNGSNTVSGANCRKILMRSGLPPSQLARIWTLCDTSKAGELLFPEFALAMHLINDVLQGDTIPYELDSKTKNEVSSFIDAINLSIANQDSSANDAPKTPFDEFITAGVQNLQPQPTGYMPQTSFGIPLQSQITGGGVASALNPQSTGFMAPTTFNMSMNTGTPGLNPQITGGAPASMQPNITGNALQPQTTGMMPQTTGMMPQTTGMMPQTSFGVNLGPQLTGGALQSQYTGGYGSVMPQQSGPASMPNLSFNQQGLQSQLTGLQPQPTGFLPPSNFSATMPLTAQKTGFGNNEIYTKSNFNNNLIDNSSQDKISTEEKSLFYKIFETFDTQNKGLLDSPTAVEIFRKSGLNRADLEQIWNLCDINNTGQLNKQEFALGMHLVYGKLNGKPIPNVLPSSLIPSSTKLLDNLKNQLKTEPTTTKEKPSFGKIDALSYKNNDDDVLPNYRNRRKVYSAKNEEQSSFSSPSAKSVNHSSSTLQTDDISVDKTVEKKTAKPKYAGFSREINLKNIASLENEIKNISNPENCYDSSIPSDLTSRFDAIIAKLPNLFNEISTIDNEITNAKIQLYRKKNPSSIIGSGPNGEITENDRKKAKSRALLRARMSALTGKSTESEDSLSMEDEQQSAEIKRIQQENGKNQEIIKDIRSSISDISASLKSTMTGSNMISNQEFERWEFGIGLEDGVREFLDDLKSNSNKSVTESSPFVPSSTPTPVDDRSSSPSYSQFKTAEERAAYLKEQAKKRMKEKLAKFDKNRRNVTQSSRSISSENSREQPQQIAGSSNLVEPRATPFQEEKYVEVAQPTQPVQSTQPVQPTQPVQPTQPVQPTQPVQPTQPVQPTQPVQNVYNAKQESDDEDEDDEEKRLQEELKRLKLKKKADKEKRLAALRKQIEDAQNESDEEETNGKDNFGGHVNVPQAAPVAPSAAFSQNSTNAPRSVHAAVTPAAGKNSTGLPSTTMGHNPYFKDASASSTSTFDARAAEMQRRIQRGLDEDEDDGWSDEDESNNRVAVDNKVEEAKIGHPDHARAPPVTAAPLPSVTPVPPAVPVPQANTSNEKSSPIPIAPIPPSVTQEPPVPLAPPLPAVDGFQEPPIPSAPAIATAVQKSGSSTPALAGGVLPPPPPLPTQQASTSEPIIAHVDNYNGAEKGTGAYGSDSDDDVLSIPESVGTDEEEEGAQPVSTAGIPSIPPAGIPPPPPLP


Columns and labels:
[1] = molecular target: the molecule itself; assay: fluorescence cross-correlation spectroscopy (FCCS); self-interaction: living diploid yeast cells with one allele fused to (3)myeGFP and one to (3)mCherry, cytoplasm; apparent (effective) KD, to be taken as the upper limit since complexes of one colour are not seen
Pan1 = molecular target: T1, Pan1; assay: fluorescence cross-correlation spectroscopy (FCCS); in the cytoplasm of living yeast cells; first-named protein green (3myeGFP or 1myeGFP; eGFP for Don1), second red (3mCherry); self-interaction in diploid strains with one allele of each colour; apparent or effective KD (Kdeff) from single-cell measurements; only Kdeff values < 1000 nM are shown; values for self-interactions are upper limits; conditions: partners not purified
[2] = molecular target: the molecule itself; assay: as above
[3] = molecular target: the molecule itself; assay: FCS molecular brightness (counts per particle per second); living yeast cells, cytoplasm; brightness of GFP-tagged particles compared with 3myeGFP and Ent2-3myeGFP (monomers) or with wild-type Ede1; average of all particles

Row | Kd (Pan1) [nM] | Binder | Kd [1] [nM] | Kd [2] [nM] | molecular brightness per particle relative to 3myeGFP [3] [fold]
1 | – | ede1Δ591–1381 (myeGFP / mCherry fusions) (domain or fragment, S. cerevisiae, UniProt P34216 1-590, looked up, 1myeGFP fusion for FCS; diploid with one myeGFP and one mCherry allele for FCCS; Each copy carries one tag; also called ede1^Δ591–1391; source: S. cerevisiae, endogenously expressed truncation mutant, in living cells; not shown: myeGFP, C-terminal, kept; mCherry, C-terminal, kept) MASITFRTPLSSQEQAFYNQKFHQLDTEDLGVVTGEAVRPLFASSGLPGQLLSQVWATVDIDNKGFLNLNEFSAALRMIAQLQNAPNQPISAALYESTPTQLASFSINQNPAPMQSGSATGNTNNTDIPALSSNDIAKFSQLFDRTAKGAQTVAGDKAKDIFLKARLPNQTLGEIWALCDRDASGVLDKSEFIMAMYLIQLCMSHHPSMNTPPAVLPTQLWDSIRLEPVVVNQPNRTTPLSANSTGVSSLTRHSTISRLSTGAFSNAASDWSLSFEKKQQFDAIFDSLDKQHAGSLSSAVLVPFFLSSRLNQETLATIWDLADIHNNAEFTKLEFAIAMFLIQKKNAGVELPDVIPNELLQSPALGLYPPNPLPQQQSAPQIAIPSRASKPSLQDMPHQVSAPAVNTQPTVPQVLPQNSNNGSLNDLLALNPSFSSPSPTKAQTVVQNNTNNSFSYDNNNGQATLQQQQPQQPPPLTHSSSGLKKFTPTSNFGQSIIKEEPEEQEQLRESSDTFSAQPPPVPKHASSPVKRTASTTLPQVPNFSVFSMPAGAATSAATGAAVGAAVGAAALGASAFSRSSNNAFKNQDLF | > 1000 | – | –
2 | 539 | Sla2 (natural protein, S. cerevisiae, UniProt P33338 1-968, looked up, Sla2, S. cerevisiae; also called Sla2-3myeGFP; Sla2-3mCherry; source: chromosomally tagged at the endogenous locus, in the cytoplasm of living S. cerevisiae cells) MSRIDSDLQKALKKACSVEETAPKRKHVRACIVYTWDHQSSKAVFTTLKTLPLANDEVQLFKMLIVLHKIIQEGHPSALAEAIRDRDWIRSLGRVHSGGSSYSKLIREYVRYLVLKLDFHAHHRGFNNGTFEYEEYVSLVSVSDPDEGYETILDLMSLQDSLDEFSQIIFASIQSERRNTECKISALIPLIAESYGIYKFITSMLRAMHRQLNDAEGDAALQPLKERYELQHARLFEFYADCSSVKYLTTLVTIPKLPVDAPDVFLINDVDESKEIKFKKREPSVTPARTPARTPTPTPPVVAEPAISPRPVSQRTTSTPTGYLQTMPTGATTGMMIPTATGAANAIFPQATAQMQPDFWANQQAQFANEQNRLEQERVQQLQQQQAQQELFQQQLQKAQQDMMNMQLQQQNQHQNDLIALTNQYEKDQALLQQYDQRVQQLESEITTMDSTASKQLANKDEQLTALQDQLDVWERKYESLAKLYSQLRQEHLNLLPRFKKLQLKVNSAQESIQKKEQLEHKLKQKDLQMAELVKDRDRARLELERSINNAEADSAAATAAAETMTQDKMNPILDAILESGINTIQESVYNLDSPLSWSGPLTPPTFLLSLLESTSENATEFATSFNNLIVDGLAHGDQTEVIHCVSDFSTSMATLVTNSKAYAVTTLPQEQSDQILTLVKRCAREAQYFFEDLMSENLNQVGDEEKTDIVINANVDMQEKLQELSLAIEPLLNIQSVKSNKETNPHSELVATADKIVKSSEHLRVDVPKPLLSLALMIIDAVVALVKAAIQCQNEIATTTSIPLNQFYLKNSRWTEGLISAAKAVAGATNVLITTASKLITSEDNENTSPEQFIVASKEVAASTIQLVAASRVKTSIHSKAQDKLEHCSKDVTDACRSLGNHVMGMIEDDHSTSQQQQPLDFTSEHTLKTAEMEQQVEILKLEQSLSNARKRLGEIRRHAYYNQDDD | – | 133 | –
3 | – | Ede1 (Ede1-3myeGFP / Ede1-3mCherry) (natural protein, S. cerevisiae, UniProt P34216 1-1381, looked up, Ede1, S. cerevisiae, homolog of mammalian Eps15; expressed from its own locus; also called wild-type Ede1; full-length Ede1; source: S. cerevisiae, chromosomally tagged at the endogenous locus, in living cells; not shown: 3myeGFP, C-terminal, kept; 3mCherry, C-terminal, kept) MASITFRTPLSSQEQAFYNQKFHQLDTEDLGVVTGEAVRPLFASSGLPGQLLSQVWATVDIDNKGFLNLNEFSAALRMIAQLQNAPNQPISAALYESTPTQLASFSINQNPAPMQSGSATGNTNNTDIPALSSNDIAKFSQLFDRTAKGAQTVAGDKAKDIFLKARLPNQTLGEIWALCDRDASGVLDKSEFIMAMYLIQLCMSHHPSMNTPPAVLPTQLWDSIRLEPVVVNQPNRTTPLSANSTGVSSLTRHSTISRLSTGAFSNAASDWSLSFEKKQQFDAIFDSLDKQHAGSLSSAVLVPFFLSSRLNQETLATIWDLADIHNNAEFTKLEFAIAMFLIQKKNAGVELPDVIPNELLQSPALGLYPPNPLPQQQSAPQIAIPSRASKPSLQDMPHQVSAPAVNTQPTVPQVLPQNSNNGSLNDLLALNPSFSSPSPTKAQTVVQNNTNNSFSYDNNNGQATLQQQQPQQPPPLTHSSSGLKKFTPTSNFGQSIIKEEPEEQEQLRESSDTFSAQPPPVPKHASSPVKRTASTTLPQVPNFSVFSMPAGAATSAATGAAVGAAVGAAALGASAFSRSSNNAFKNQDLFADGEASAQLSNATTEMANLSNQVNSLSKQASITNDKKSRATQELKRVTEMKNSIQIKLNNLRSTHDQNVKQTEQLEAQVLQVNKENETLAQQLAVSEANYHAAESKLNELTTDLQESQTKNAELKEQITNLNSMTASLQSQLNEKQQQVKQERSMVDVNSKQLELNQVTVANLQKEIDGLGEKISVYLTKQKELNDYQKTVEEQHAQLQAKYQDLSNKDTDLTDREKQLEERNRQIEEQENLYHQHVSKLQEMFDDLSQRKASFEKADQELKERNIEYANNVRELSERQMNLAMGQLPEDAKDIIAKSASNTDTTTKEATSRGNVHEDTVSKFVETTVENSNLNVNRVKDDEEKTERTESDVFDRDVPTLGSQSDSENANTNNGTQSGNETANPNLTETLSDRFDGDLNEYGIPRSQSLTSSVANNAPQSVRDDVELPETLEERDTINNTANRDNTGNLSHIPGEWEATPATASTDVLSNETTEVIEDGSTTKRANSNEDGESVSSIQESPKISAQPKAKTINEEFPPIQELHIDESDSSSSDDDEFEDTREIPSATVKTLQTPYNAQPTSSLEIHTEQVIKYPAPGTSPSHNEGNSKKASTNSILPVKDEFDDEFAGLEQAAVEEDNGADSESEFENVANAGSMEQFETIDHKDLDDELQMNAFTGTLTSSSNPTIPKPQVQQQSTSDPAQVSNDEWDEIFAGFGNSKAEPTKVATPSIPQQPIPLKNDPIVDASLSKGPIVNRGVATTPKSLAVEELSGMGFTEEEAHNALEKCNWDLEAATNFLLDSA | 127 | – | ~2.5
4 | – | Bbc1 (natural protein, S. cerevisiae, UniProt P47068 1-1157, looked up, Bbc1, S. cerevisiae; also called Bbc1-3myeGFP; Bbc1-3mCherry; source: chromosomally tagged at the endogenous locus, in the cytoplasm of living S. cerevisiae cells) MSEPEVPFKVVAQFPYKSDYEDDLNFEKDQEIIVTSVEDAEWYFGEYQDSNGDVIEGIFPKSFVAVQGSEVGKEAESSPNTGSTEQRTIQPEVEQKDLPEPISPETKKETLSGPVPVPAATVPVPAATVPVPAATAVSAQVQHDSSSGNGERKVPMDSPKLKARLSMFNQDITEQVPLPKSTHLDLENIPVKKTIVADAPKYYVPPGIPTNDTSNLERKKSLKENEKKIVPEPINRAQVESGRIETENDQLKKDLPQMSLKERIALLQEQQRLQAAREEELLRKKAKLEQEHERSAVNKNEPYTETEEAEENEKTEPKPEFTPETEHNEEPQMELLAHKEITKTSREADEGTNDIEKEQFLDEYTKENQKVEESQADEARGENVAEESEIGYGHEDREGDNDEEKEEEDSEENRRAALRERMAKLSGASRFGAPVGFNPFGMASGVGNKPSEEPKKKQHKEKEEEEPEQLQELPRAIPVMPFVDPSSNPFFRKSNLSEKNQPTETKTLDPHATTEHEQKQEHGTHAYHNLAAVDNAHPEYSDHDSDEDTDDHEFEDANDGLRKHSMVEQAFQIGNNESENVNSGEKIYPQEPPISHRTAEVSHDIENSSQNTTGNVLPVSSPQTRVARNGSINSLTKSISGENRRKSINEYHDTVSTNSSALTETAQDISMAAPAAPVLSKVSHPEDKVPPHPVPSAPSAPPVPSAPSVPSAPPVPPAPPALSAPSVPPVPPVPPVSSAPPALSAPSIPPVPPTPPAPPAPPAPLALPKHNEVEEHVKSSAPLPPVSEEYHPMPNTAPPLPRAPPVPPATFEFDSEPTATHSHTAPSPPPHQNVTASTPSMMSTQQRVPTSVLSGAEKESRTLPPHVPSLTNRPVDSFHESDTTPKVASIRRSTTHDVGEISNNVKIEFNAQERWWINKSAPPAISNLKLNFLMEIDDHFISKRLHQKWVVRDFYFLFENYSQLRFSLTFNSTSPEKTVTTLQERFPSPVETQSARILDEYAQRFNAKVVEKSHSLINSHIGAKNFVSQIVSEFKDEVIQPIGARTFGATILSYKPEEGIEQLMKSLQKIKPGDILVIRKAKFEAHKKIGKNEIINVGMDSAAPYSSVVTDYDFTKNKFRVIENHEGKIIQNSYKLSHMKSGKLKVFRIVARGYVGW | – | 115 | –
